Our source for the ratio to parent values is publication PMC11322666 (2024).

The chains are these.
B1: UPF3B^WT, Flag tagged [human] / inositol-requiring enzyme-1α (IRE1α), endogenous [human (endogenous in HEK293T and U2OS)] (parent complex)
chain 1: MKEEKEHRPKEKRVTLLTPAGATGSGGGTSGDSSKGEDKQDRNKEKKEALSKVVIRRLPPTLTKEQLQEHLQPMPEHDYFEFFSNDTSLYPHMYARAYINFKNQEDIILFRDRFDGYVFLDNKGQEYPAIVEFAPFQKAAKKKTKKRDTKVGTIDDDPEYRKFLESYATDNEKMTSTPETLLEEIEAKNRELIAKKTTPLLSFLKNKQRMREEKREERRRREIERKRQREEERRKWKEEEKRKRKDIEKLKKIDRIPERDKLKDEPKIKVHRFLLQAVNQKNLLKKPEKGDEKELDKREKAKKLDKENLSDERASGQSCTLPKRSDSELKDEKPKRPEDESGRDYREREREYERDQERILRERERLKRQEEERRRQKERYEKEKTFKRKEEEMKKEKDTLRDKGKKAESTESIGSSEKTEKKEEVVKRDRIRNKDRPAMQLYQPGARSRNRLCPPDDSTKSGDSAAERKQESGISHRKEGGEE
chain 2: IFGSTSTVTLPETLLFVSTLDGSLHAVSKRTGSIKWTLKEDPVLQVPTHVEEPAFLPDPNDGSLYTLGSKNNEGLTKLPFTIPELVQASPCRSSDGILYMGKKQDIWYVIDLLTGEKQQTLSSAFADSLCPSTSLLYLGRTEYTITMYDTKTRELRWNATYFDYAASLPEDDVDYKMSHFVSNGDGLVVTVDSESGDVLWIQNYASPVVAFYVWQREGLRKVMHINVAVETLRYLTFMSGEVGRITKWKYPFPKETEAKSKLTPTLYVGKYSTSLYASPSMVHEGVAVVPRGSTLPLLEGPQTDGVTIGDKGECVITPSTDVKFDPGLKSKNKLNYLRNYWLLIGHHETPLSASTKMLERFPNNLPKHRENVIPADSEKKSFEEVINLVDQTSENAPTTVSRDVEEKPAHAPARPEAPVDSMLKDMATIILSTFLLIGWVAFIITYPLSMHQQQQLQHQQFQKELEKIQLLQQQQQQLPFHPPGDTAQDGELLDTSGPYSESSGTSSPSTSPRASNHSLCSGSSASKAGSSPSLEQDDGDEETSVVIVGKISFCPKDVLGHGAEGTIVYRGMFDNRDVAVKRILPECFSFADREVQLLRESDEHPNVIRYFCTEKDRQFQYIAIELCAATLQEYVEQKDFAHLGLEPITLLQQTTSGLAHLHSLNIVHRDLKPHNILISMPNAHGKIKAMISDFGLCKKLAVGRHSFSRRSGVPGTEGWIAPEMLSEDCKENPTYTVDIFSAGCVFYYVISEGSHPFGKSLQRQANILLGACSLDCLHPEKHEDVIARELIEKMIAMDPQKRPSAKHVLKHPFFWSLEKQLQFFQDVSDRIEKESLDGPIVKQLERGGRAVVKMDWRENITVPLQTDLRKFRTYKGGSVRDLLRAMRNKKHHYRELPAEVRETLGSLPDDFVCYFTSRFPHLLAHTYRAMELCSHERLFQPYYFHEPPEPQPPVTPDAL
B2: UPF3B^WT, Flag tagged [human] / UPF2, endogenous [human (endogenous in HEK293T)] (parent complex)
chain 1: B1 chain 1
chain 2: MPAERKKPASMEEKDSLPNNKEKDCSERRTVSSKERPKDDIKLTAKKEVSKAPEDKKKRLEDDKRKKEDKERKKKDEEKVKAEEESKKKEEEEKKKHQEEERKKQEEQAKRQQEEEAAAQMKEKEESIQLHQEAWERHHLRKELRSKNQNAPDSRPEENFFSRLDSSLKKNTAFVKKLKTITEQQRDSLSHDFNGLNLSKYIAEAVASIVEAKLKISDVNCAVHLCSLFHQRYADFAPSLLQVWKKHFEARKEEKTPNITKLRTDLRFIAELTIVGIFTDKEGLSLIYEQLKNIINADRESHTHVSVVISFCRHCGDDIAGLVPRKVKSAAEKFNLSFPPSEIISPEKQQPFQNLLKEYFTSLTKHLKRDHRELQNTERQNRRILHSKGELSEDRHKQYEEFAMSYQKLLANSQSLADLLDENMPDLPQDKPTPEEHGPGIDIFTPGKPGEYDLEGGIWEDEDARNFYENLIDLKAFVPAILFKDNEKSCQNKESNKDDTKEAKESKENKEVSSPDDLELELENLEINDDTLELEGGDEAEDLTKKLLDEQEQEDEEASTGSHLKLIVDAFLQQLPNCVNRDLIDKAAMDFCMNMNTKANRKKLVRALFIVPRQRLDLLPFYARLVATLHPCMSDVAEDLCSMLRGDFRFHVRKKDQINIETKNKTVRFIGELTKFKMFTKNDTLHCLKMLLSDFSHHHIEMACTLLETCGRFLFRSPESHLRTSVLLEQMMRKKQAMHLDARYVTMVENAYYYCNPPPAEKTVKKKRPPLQEYVRKLLYKDLSKVTTEKVLRQMRKLPWQDQEVKDYVICCMINIWNVKYNSIHCVANLLAGLVLYQEDVGIHVVDGVLEDIRLGMEVNQPKFNQRRISSAKFLGELYNYRMVESAVIFRTLYSFTSFGVNPDGSPSSLDPPEHLFRIRLVCTILDTCGQYFDRGSSKRKLDCFLVYFQRYVWWKKSLEVWTKDHPFPIDIDYMISDTLELLRPKIKLCNSLEESIRQVQDLEREFLIKLGLVNDKDSKDSMTEGENLEEDEEEEEGGAETEEQSGNESEVNEPEEEEGSDNDDDEGEEEEEENTDYLTDSNKENETDEENTEVMIKGGGLKHVPCVEDEDFIQALDKMMLENLQQRSGESVKVHQLDVAIPLHLKSQLRKGPPLGGGEGEAESADTMPFVMLTRKGNKQQFKILNVPMSSQLAANHWNQQQAEQEERMRMKKLTLDINERQEQEDYQEMLQSLAQRPAPANTNRERRPRYQHPKGAPNADLIFKTGGRRR

The variants in one assay derive from B1. The assay is described as follows: co-immunoprecipitation (IP: Flag, blot IRE1α), western blot band quantification; HEK293T cells, transfected for 24 h. For orientation: In western blotting, separated proteins are transferred to a membrane and probed.
Take chain 1 T169D: the ratio to parent came out at 0.26.
On the same count and under the same terms, in the case of chain 1 T169A it was 1.15.

Variants of B1 are the subject of a further assay. The assay is described as follows: co-immunoprecipitation (IP: Flag, blot IRE1α), western blot band quantification; U2OS cells, transfected for 24 h.
Turning to chain 1 Y160F, the ratio to parent came out at 1.29.
The same measure, in the same setting: in the case of chain 1 Y160D it was 0.17.

Variants of B1 are the subject of another assay. The assay is described as follows: co-immunoprecipitation (IP: Flag, blot IRE1α), western blot band quantification; HEK293T cells, transfected for 24 h. This is another data set of the same source.
As for chain 1 Y160F, the ratio to parent came to 1.28.
Regarding chain 1 Y160D, the ratio to parent was 0.21.

The variants in a further assay derive from B1. The assay is described as follows: co-immunoprecipitation (IP: Flag, blot IRE1α), western blot band quantification; transfected for 24 h.
Take chain 1 T198A: the ratio to parent turned out to be 1.06.
For chain 1 T198D, the ratio to parent worked out at 1.21.

In the next assay the parent is B1. Described as above. The source holds these as a separate data set.
As to chain 1 T197A, the ratio to parent was determined as 1.22.
For chain 1 T197D, the ratio to parent came to 1.1.

Variants of B2 are the subject of another assay. The experiment in a line: co-immunoprecipitation (IP: Flag, blot UPF2), western blot band quantification; transfected for 24 h.
With chain 1 MKEEKEHRPKEKRVTLLTPAGATGSGGGTSGDSSKGEDKQDRNKEKKEALSKVVIRRLPPTLTKEQLQEHLQPMPEHDYFEFFSNDTSLYPHMYARAYINFKNQEDIILFRDRFDGYVFLDNKGQEYPAIVEFAPFQKAAKKKTKKRDTKVGTIDDDPEYRKFLESYATDNEKMTSTPETLLEEIEAKNRELIAKKTDPLLSFLKNKQRMREEKREERRRREIERKRQREEERRKWKEEEKRKRKDIEKLKKIDRIPERDKLKDEPKIKVHRFLLQAVNQKNLLKKPEKGDEKELDKREKAKKLDKENLSDERASGQSCTLPKRSDSELKDEKPKRPEDESGRDYREREREYERDQERILRERERLKRQEEERRRQKERYEKEKTFKRKEEEMKKEKDTLRDKGKKAESTESIGSSEKTEKKEEVVKRDRIRNKDRPAMQLYQPGARSRNRLCPPDDSTKSGDSAAERKQESGISHRKEGGEE [chain 1 T198D], the ratio to parent was 1.07.
Still for that read-out and setting: in the case of chain 1 MKEEKEHRPKEKRVTLLTPAGATGSGGGTSGDSSKGEDKQDRNKEKKEALSKVVIRRLPPTLTKEQLQEHLQPMPEHDYFEFFSNDTSLYPHMYARAYINFKNQEDIILFRDRFDGYVFLDNKGQEYPAIVEFAPFQKAAKKKTKKRDTKVGTIDDDPEYRKFLESYATDNEKMTSTPETLLEEIEAKNRELIAKKDTPLLSFLKNKQRMREEKREERRRREIERKRQREEERRKWKEEEKRKRKDIEKLKKIDRIPERDKLKDEPKIKVHRFLLQAVNQKNLLKKPEKGDEKELDKREKAKKLDKENLSDERASGQSCTLPKRSDSELKDEKPKRPEDESGRDYREREREYERDQERILRERERLKRQEEERRRQKERYEKEKTFKRKEEEMKKEKDTLRDKGKKAESTESIGSSEKTEKKEEVVKRDRIRNKDRPAMQLYQPGARSRNRLCPPDDSTKSGDSAAERKQESGISHRKEGGEE [chain 1 T197D] it was 1.11.

Variants of B2 are the subject of the next assay. The assay is described as above. The source holds these as a separate data set.
Regarding chain 1 MKEEKEHRPKEKRVTLLTPAGATGSGGGTSGDSSKGEDKQDRNKEKKEALSKVVIRRLPPTLTKEQLQEHLQPMPEHDYFEFFSNDTSLYPHMYARAYINFKNQEDIILFRDRFDGYVFLDNKGQEYPAIVEFAPFQKAAKKKTKKRDTKVGTIDDDPEYRKFLESYAADNEKMTSTPETLLEEIEAKNRELIAKKTTPLLSFLKNKQRMREEKREERRRREIERKRQREEERRKWKEEEKRKRKDIEKLKKIDRIPERDKLKDEPKIKVHRFLLQAVNQKNLLKKPEKGDEKELDKREKAKKLDKENLSDERASGQSCTLPKRSDSELKDEKPKRPEDESGRDYREREREYERDQERILRERERLKRQEEERRRQKERYEKEKTFKRKEEEMKKEKDTLRDKGKKAESTESIGSSEKTEKKEEVVKRDRIRNKDRPAMQLYQPGARSRNRLCPPDDSTKSGDSAAERKQESGISHRKEGGEE [chain 1 T169A], the ratio to parent came out at 1.1.
The same measure, in the same setting: in the case of chain 1 MKEEKEHRPKEKRVTLLTPAGATGSGGGTSGDSSKGEDKQDRNKEKKEALSKVVIRRLPPTLTKEQLQEHLQPMPEHDYFEFFSNDTSLYPHMYARAYINFKNQEDIILFRDRFDGYVFLDNKGQEYPAIVEFAPFQKAAKKKTKKRDTKVGTIDDDPEYRKFLESYADDNEKMTSTPETLLEEIEAKNRELIAKKTTPLLSFLKNKQRMREEKREERRRREIERKRQREEERRKWKEEEKRKRKDIEKLKKIDRIPERDKLKDEPKIKVHRFLLQAVNQKNLLKKPEKGDEKELDKREKAKKLDKENLSDERASGQSCTLPKRSDSELKDEKPKRPEDESGRDYREREREYERDQERILRERERLKRQEEERRRQKERYEKEKTFKRKEEEMKKEKDTLRDKGKKAESTESIGSSEKTEKKEEVVKRDRIRNKDRPAMQLYQPGARSRNRLCPPDDSTKSGDSAAERKQESGISHRKEGGEE [chain 1 T169D] it was 0.2.

Another assay covers variants of B2. The description is as above. This is another data set of the same source.
For chain 1 MKEEKEHRPKEKRVTLLTPAGATGSGGGTSGDSSKGEDKQDRNKEKKEALSKVVIRRLPPTLTKEQLQEHLQPMPEHDYFEFFSNDTSLYPHMYARAYINFKNQEDIILFRDRFDGYVFLDNKGQEYPAIVEFAPFQKAAKKKTKKRDTKVGTIDDDPEDRKFLESYATDNEKMTSTPETLLEEIEAKNRELIAKKTTPLLSFLKNKQRMREEKREERRRREIERKRQREEERRKWKEEEKRKRKDIEKLKKIDRIPERDKLKDEPKIKVHRFLLQAVNQKNLLKKPEKGDEKELDKREKAKKLDKENLSDERASGQSCTLPKRSDSELKDEKPKRPEDESGRDYREREREYERDQERILRERERLKRQEEERRRQKERYEKEKTFKRKEEEMKKEKDTLRDKGKKAESTESIGSSEKTEKKEEVVKRDRIRNKDRPAMQLYQPGARSRNRLCPPDDSTKSGDSAAERKQESGISHRKEGGEE [chain 1 Y160D], the ratio to parent turned out to be 0.21.
Same read-out and setting: in the case of chain 1 MKEEKEHRPKEKRVTLLTPAGATGSGGGTSGDSSKGEDKQDRNKEKKEALSKVVIRRLPPTLTKEQLQEHLQPMPEHDYFEFFSNDTSLYPHMYARAYINFKNQEDIILFRDRFDGYVFLDNKGQEYPAIVEFAPFQKAAKKKTKKRDTKVGTIDDDPEFRKFLESYATDNEKMTSTPETLLEEIEAKNRELIAKKTTPLLSFLKNKQRMREEKREERRRREIERKRQREEERRKWKEEEKRKRKDIEKLKKIDRIPERDKLKDEPKIKVHRFLLQAVNQKNLLKKPEKGDEKELDKREKAKKLDKENLSDERASGQSCTLPKRSDSELKDEKPKRPEDESGRDYREREREYERDQERILRERERLKRQEEERRRQKERYEKEKTFKRKEEEMKKEKDTLRDKGKKAESTESIGSSEKTEKKEEVVKRDRIRNKDRPAMQLYQPGARSRNRLCPPDDSTKSGDSAAERKQESGISHRKEGGEE [chain 1 Y160F] it was 1.08.
